# From IntAct's records for PubMed 15078334
# B1: Guanine nucleotide-binding protein alpha-1 subunit (Oryza sativa subsp. japonica (Rice)), Q0DJ33 (parent)
# chain: MGSSCSRSHSLSEAETTKNAKSADIDRRILQETKAEQHIHKLLLLGAGESGKSTIFKQIKLLFQTGFDEAELRSYTSVIHANVYQTIKILYEGAKELSQVESDSSKYVISPDNQEIGEKLSDIDGRLDYPLLNKELVLDVKRLWQDPAIQETYLRGSILQLPDCAQYFMENLDRLAEAGYVPTKEDVLYARVRTNGVVQIQFSPVGENKRGGEVYRLYDVGGQRNERRKWIHLFEGVNAVIFCAAISEYDQMLFEDETKNRMMETKELFDWVLKQRCFEKTSFILFLNKFDIFEKKIQKVPLSVCEWFKDYQPIAPGKQEVEHAYEFVKKKFEELYFQSSKPDRVDRVFKIYRTTALDQKLVKKTFKLIDESMRRSREGT
# partner: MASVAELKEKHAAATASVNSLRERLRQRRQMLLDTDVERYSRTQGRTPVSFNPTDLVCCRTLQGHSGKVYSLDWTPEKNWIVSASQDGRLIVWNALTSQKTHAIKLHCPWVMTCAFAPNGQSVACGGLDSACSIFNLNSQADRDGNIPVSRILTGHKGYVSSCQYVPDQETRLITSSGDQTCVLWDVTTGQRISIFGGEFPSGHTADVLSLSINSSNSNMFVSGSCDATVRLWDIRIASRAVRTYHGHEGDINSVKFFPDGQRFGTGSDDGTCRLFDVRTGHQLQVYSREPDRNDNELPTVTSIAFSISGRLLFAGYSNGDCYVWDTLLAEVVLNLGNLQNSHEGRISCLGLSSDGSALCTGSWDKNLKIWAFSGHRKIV
# Variants of: B1
# Details: with gbb_orysj RGB1, Q40687
row,effect of a mutation on the interaction,Variant
1,disrupting interaction,Q223L
